7 molecules from patent US20260297181 (published 2026) can be followed below.

Substitutions are numbered along the chain they refer to. Names may count otherwise.

To fix the notation:
B1: gsLOV (antibody)
chain: MAQIQLVQSGPELKKPGETVKISCKASGYTFTDYSMHWVKQAPGKGLKWMDWINTETGVPTYADDFKGRFAFSLETSANTAYLQINDLKNEDTATYFCTRGYGKGYFDVWGAGTTVTVSSAKSTPPSVYPLAPGSGGGGSGEFLATTLERIEKNFVITDPRLPDNPIIFASDSFLQLTEYSREEILGRNCRFLQGPETDRATVRKIRDAIDNQTEVTVQLINYTKSGKKFWNLFHLQPMRDQKGDVQYFIGVQLDGTEHVRDAAEREAVMLIKKTAEEIDEAAKELGGGGSQIVLTQSPTIMSASLGERVTMTCTASSSVSSSYLHWYQQKPGSSPKLWIYSTSNLASGVPARFSGSGSGTSYSLTISSMEAEDAATYYCHQYHRSPPTFGAGTKLELKRADAAKL
B2: gsLOV C190A "dark" (antibody)
chain: B1 chain with C190A
B3: gsLOV I272E, A276E "light" (antibody)
chain: B1 chain with I272E, A276E
B4: WT anti-insulin scFv (HB125) (antibody)
chain: MAQIQLVQSGPELKKPGETVKISCKASGYTFTDYSMHWVKQAPGKGLKWMDWINTETGVPTYADDFKGRFAFSLETSANTAYLQINDLKNEDTATYFCTRGYGKGYFDVWGAGTTVTVSSAKSTPPSVYPLAPGSGGGGSGGGGSGGGGSQIVLTQSPTIMSASLGERVTMTCTASSSVSSSYLHWYQQKPGSSPKLWIYSTSNLASGVPARFSGSGSGTSYSLTISSMEAEDAATYYCHQYHRSPPTFGAGTKLELKRADAA
B5: nolinkLOV C185A "dark" (antibody)
chain: MAQIQLVQSGPELKKPGETVKISCKASGYTFTDYSMHWVKQAPGKGLKWMDWINTETGVPTYADDFKGRFAFSLETSANTAYLQINDLKNEDTATYFCTRGYGKGYFDVWGAGTTVTVSSAKSTPPSVYPLAPGSGEFLATTLERIEKNFVITDPRLPDNPIIFASDSFLQLTEYSREEILGRNARFLQGPETDRATVRKIRDAIDNQTEVTVQLINYTKSGKKFWNLFHLQPMRDQKGDVQYFIGVQLDGTEHVRDAAEREAVMLIKKTAEEIDEAAKELQIVLTQSPTIMSASLGERVTMTCTASSSVSSSYLHWYQQKPGSSPKLWIYSTSNLASGVPARFSGSGSGTSYSLTISSMEAEDAATYYCHQYHRSPPTFGAGTKLELKRADAAKL
B6: nolinkLOV I267E, A271E "light" (antibody)
chain: B5 chain with A185C, I267E, A271E
B7: nolinkLOV (antibody)
chain: B5 chain with A185C

For the first assay, the target named is T1, insulin (human, UniProt P01308). The experiment in a line: BLI. On the technique in general: Biolayer interferometry detects binding as a change in optical thickness at a sensor tip.
T1 sequence (P01308 25-54, chain 1 of 2): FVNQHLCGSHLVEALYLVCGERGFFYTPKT
T1 sequence (P01308 90-110, chain 2 of 2): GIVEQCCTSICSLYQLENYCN
Regarding B1, binding was characterised by a dissociation constant (Kd) of 100 nM.

B2: the Kd (commonly the constant that tells how readily two partners part at equilibrium) stood at 104 nM. The Kd values of the last two molecules are within 1.5-fold of each other.

In turn, B3 came in with a Kd of 63.8 nM.

In turn, B4 came in with a Kd of 55.2 nM. This Kd and that of the molecule before are within 1.5-fold of each other.

Another assay concerns the target T1, insulin. Kind of assay: BLI. The source holds these as a separate data set.
With B4, the affinity, expressed as Kd, was 55.2 nM.

In turn, B5 yielded a dissociation constant Kd of 198 nM.

Take B6: the dissociation constant (Kd) amounted to 68.7 nM.

Molecule B7 yielded a dissociation constant (Kd) of 78.5 nM.
